Columns and labels:
[1] = target: T1, human CD22 (human, UniProt P20273 20-847); experiment: flow cytometry, REH cells, Tap18Hr1 conjugate 3.3 µg/mL
T1 construct: Endogenous CD22 on human cell lines Daudi, Raji, Ramos, RL, REH and NALM-6; no signal peptide limits are stated; also called antigen CD22
Procedure: (§1) 6×10⁴˜1×10⁵ cells were seeded per well in a v-bottomed 96-well plate and incubated with 100 μl of the unconjugated Abs or the ADCs at titrated concentrations or isotype control antibody human IgG at 10 μg/mL. After 30-60 minutes of incubation at 4° C., cells were washed once with 200 μl FACS buffer (lx PBS containing 1% FBS), stained with 100 μl of 1 μg/ml goat F(ab′)2-anti-human IgG (H+L)-RPE (Southern Biotech, Cat. No. 2043-09) in FACS buffer and then incubated at 4° C. for 30˜60 min Cells were washed once with FACS buffer and analyzed by flow cytometer (BD LSR, BD Life Sciences).
(§2) The binding ability of hLL2-Cys variants with or without drug conjugation was evaluated in Daudi and REH cancer cells.

[2] = target: T1, human CD22; experiment: as above; remark: listed apart in the source
Procedure: as §1
(§3) In general, the site-specific conjugated hLL2-IgG4p ADCs retained antigen reactivity of antibody.

[3] = target: T1, human CD22; experiment: flow cytometry, Daudi cells, Tap18Hr1 conjugate 3.3 µg/mL
Procedure: as §1, §2

[4] = target: T1, human CD22; experiment: as above; remark: listed apart in the source
Procedure: as §1, §3

[5] = target: T1, human CD22; experiment: cell-based or functional assay

Binder | MFI [1] | MFI [2] | MFI [3] | MFI [4] | % inhibition, WST-1 cytotoxicity, Daudi cells, 1.1 µg/mL [5] [%] | % inhibition, WST-1 cytotoxicity, Daudi cells, 3.3 µg/mL [5] [%] | % inhibition, WST-1 cytotoxicity, Ramos cells, 1.1 µg/mL [5] [%] | % inhibition, WST-1 cytotoxicity, Ramos cells, 3.3 µg/mL [5] [%]
hLL2-IgG1-Tap18Hr1 (antibody, Tap18Hr1 linker-drug on cysteine thiols of the partially reduced antibody (light chain with 0 or 1 drug); sites not stated; Tap18Hr1 linker-drug (monomethyl dolastatin 10) on cysteine thiols of the partially reduced antibody, conventional conjugation, DAR 2.7-3.5; sites not stated, also called Anti-hLL2-IgG1-Tap18Hr1; Anti-CD22 (hLL2)-IgG1-Tap18Hr1) heavy: not shown light: DIQLTQSPSSLSASVGDRVTMSCKSSQSVLYSANHKNYLAWYQQKPGKAPKLLIYWASTRESGVPSRFSGSGSGTDFTFTISSLQPEDIATYYCHQYLSSWTFGGGTKLEIKRTVAAPSVFIFPPSDEQLKSGTASVVCLLNNFYPREAKVQWKVDNALQSGNSQESVTEQDSKDSTYSLSSTLTLSKADYEKHKVYACEVTHQGLSSPVTKSFNRGEC | 104 | 104 | 1400 | 1400 |  |  |  | 
hLL2-S157C-IgG1-Tap18Hr1 (antibody, Tap18Hr1 linker-drug (monomethyl dolastatin 10) on the introduced Cys 157 (EU numbering); site-specific conjugation, DAR 1.58-2.01, also called hLL2-S157C-IgG1 Tap18Hr1 conjugate) heavy: not shown light: DIQLTQSPSSLSASVGDRVTMSCKSSQSVLYSANHKNYLAWYQQKPGKAPKLLIYWASTRESGVPSRFSGSGSGTDFTFTISSLQPEDIATYYCHQYLSSWTFGGGTKLEIKRTVAAPSVFIFPPSDEQLKSGTASVVCLLNNFYPREAKVQWKVDNALQSGNSQESVTEQDSKDSTYSLSSTLTLSKADYEKHKVYACEVTHQGLSSPVTKSFNRGEC | 94 |  | 1230 |  | 76.3 | 79.4 | 90.4 | 93.9
hLL2-S442C-IgG1-Tap18Hr1 (antibody, Tap18Hr1 linker-drug (monomethyl dolastatin 10) on the introduced Cys 442 (EU numbering); site-specific conjugation, DAR 1.58-2.01, also called hLL2-S442C-IgG1 Tap18Hr1 conjugate) heavy: not shown light: DIQLTQSPSSLSASVGDRVTMSCKSSQSVLYSANHKNYLAWYQQKPGKAPKLLIYWASTRESGVPSRFSGSGSGTDFTFTISSLQPEDIATYYCHQYLSSWTFGGGTKLEIKRTVAAPSVFIFPPSDEQLKSGTASVVCLLNNFYPREAKVQWKVDNALQSGNSQESVTEQDSKDSTYSLSSTLTLSKADYEKHKVYACEVTHQGLSSPVTKSFNRGEC | 87 |  | 914 |  | 77.6 | 79 | 92 | 96
